For two molecules, binding result and Kd results are on record in article PMC10798875 (The Journal of Cell Biology, 2024).

The target of test [1] is karyopherinα (Kapα; importinα1; KPNA2), full-length human (human, UniProt P52292 1-529). In words: MST.
Test [2] concerns the target RanGTP (wild-type Ran loaded with GTP) (UniProt P62826 1-216). The test can be described thus: MST.

B1: ∆40NCAS (CAS lacking the first 40 amino acids of the N-terminus) (domain or fragment)
chain: NYPLLLLTLLEKSQDNVIKVCASVTFKNYIKRNWRIVEDEPNKICEADRVAIKANIVHLMLSSPEQIQKQLSDAISIIGREDFPQKWPDLLTEMVNRFQSGDFHVINGVLRTAHSLFKRYRHEFKSNELWTEIKLVLDAFALPLTNLFKATIELCSTHANDASALRILFSSLILISKLFYSLNFQDLPEFFEDNMETWMNNFHTLLTLDNKLLQTDDEEEAGLLELLKSQICDNAALYAQKYDEEFQRYLPRFVTAIWNLLVTTGQEVKYDLLVSNAIQFLASVCERPHYKNLFEDQNTLTSICEKVIVPNMEFRAADEEAFEDNSEEYIRRDLEGSDIDTRRRAACDLVRGLCKFFEGPVTGIFSGYVNSMLQEYAKNPSVNWKHKDAAIYLVTSLASKAQTQKHGITQANELVNLTEFFVNHILPDLKSANVNEFPVLKADGIKYIMIFRNQVPKEHLLVSIPLLINHLQAESIVVHTYAAHALERLFTMRGPNNATLFTAAEIAPFVEILLTNLFKALTLPGSSENEYIMKAIMRSFSLLQEAIIPYIPTLITQLTQKLLAVSKNPSKPHFNHYMFEAICLSIRITCKANPAAVVNFEEALFLVFTEILQNDVQEFIPYVFQVMSLLLETHKNDIPSSYMALFPHLLQPVLWERTGNIPALVRLLQAFLERGSNTIASAAADKIPGLLGVFQKLIASKANDHQGFYLLNSIIEHMPPESVDQYRKQIFILLFQRLQNSKTTKFIKSFLVFINLYCIKYGALALQEIFDGIQPKMFGMVLEKIIIPEIQKVSGNVEKKICAVGITKLLTECPPMMDTEYTKLWTPLLQSLIGLFELPEDDTIPDEEHFIDIEDTPGYQTAFSQLAFAGKKEHDPVGQMVNNPKIHLAQSLHKLSTACPGRVPSMVSTSLNAEALQYLQGYLQAASVTLL
For B1, in test [1], the binding result was “binds”.

B2: cellular apoptosis susceptibility protein (CAS), human wild type (natural protein)
chain: MELSDANLQTLTEYLKKTLDPDPAIRRPAEKFLESVEGNQNYPLLLLTLLEKSQDNVIKVCASVTFKNYIKRNWRIVEDEPNKICEADRVAIKANIVHLMLSSPEQIQKQLSDAISIIGREDFPQKWPDLLTEMVNRFQSGDFHVINGVLRTAHSLFKRYRHEFKSNELWTEIKLVLDAFALPLTNLFKATIELCSTHANDASALRILFSSLILISKLFYSLNFQDLPEFFEDNMETWMNNFHTLLTLDNKLLQTDDEEEAGLLELLKSQICDNAALYAQKYDEEFQRYLPRFVTAIWNLLVTTGQEVKYDLLVSNAIQFLASVCERPHYKNLFEDQNTLTSICEKVIVPNMEFRAADEEAFEDNSEEYIRRDLEGSDIDTRRRAACDLVRGLCKFFEGPVTGIFSGYVNSMLQEYAKNPSVNWKHKDAAIYLVTSLASKAQTQKHGITQANELVNLTEFFVNHILPDLKSANVNEFPVLKADGIKYIMIFRNQVPKEHLLVSIPLLINHLQAESIVVHTYAAHALERLFTMRGPNNATLFTAAEIAPFVEILLTNLFKALTLPGSSENEYIMKAIMRSFSLLQEAIIPYIPTLITQLTQKLLAVSKNPSKPHFNHYMFEAICLSIRITCKANPAAVVNFEEALFLVFTEILQNDVQEFIPYVFQVMSLLLETHKNDIPSSYMALFPHLLQPVLWERTGNIPALVRLLQAFLERGSNTIASAAADKIPGLLGVFQKLIASKANDHQGFYLLNSIIEHMPPESVDQYRKQIFILLFQRLQNSKTTKFIKSFLVFINLYCIKYGALALQEIFDGIQPKMFGMVLEKIIIPEIQKVSGNVEKKICAVGITKLLTECPPMMDTEYTKLWTPLLQSLIGLFELPEDDTIPDEEHFIDIEDTPGYQTAFSQLAFAGKKEHDPVGQMVNNPKIHLAQSLHKLSTACPGRVPSMVSTSLNAEALQYLQGYLQAASVTLL
Broadly, the Kd is the equilibrium constant for the complex coming apart. The low end stands for a tighter complex, the high end for a looser complex. Turning to B2, the Kd was 1400 ± 400 nM in test [2] and 9.3 ± 2.9 nM in test [1].
